The target of the experiment is T1, Cbf5 (Pyrococcus furiosus, UniProt Q7LWY0 1-340).
T1 sequence (looked up): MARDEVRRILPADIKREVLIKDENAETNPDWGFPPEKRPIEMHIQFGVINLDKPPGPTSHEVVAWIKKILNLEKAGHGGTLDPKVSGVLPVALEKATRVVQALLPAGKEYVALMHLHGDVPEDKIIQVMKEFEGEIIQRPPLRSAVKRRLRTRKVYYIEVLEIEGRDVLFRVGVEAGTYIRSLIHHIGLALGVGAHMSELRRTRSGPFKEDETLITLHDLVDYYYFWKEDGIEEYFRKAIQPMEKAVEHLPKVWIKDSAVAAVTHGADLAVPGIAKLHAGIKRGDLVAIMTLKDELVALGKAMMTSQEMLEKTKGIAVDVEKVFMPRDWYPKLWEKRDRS
In words: crystal structure.

B1: Nop10 (natural protein, Pyrococcus furiosus)
chain: MRFRIRKCPKCGRYTLKEVCPVCGEKTKVAHPPRFSPEDPYGEYRRRWKREVLGIGRKEK
As for B1, the binding result is given as “binds”.

Source of the values: article PMC2928259 (Biochemistry, 2010).
